Test results published in the DeepSol protein solubility set.

assay: soluble on expression in E. coli; label from the status in PepcDB or PDB records

Sequence | soluble on expression in E. coli
ARFYSDGLKLAGTLFVPDDYEPGQKRPAVLICHGRFAIKEWVPSRWTPHFLAAGYVCMVFDYRNLGESEGTPGRIIPDEEVRDARHALTYLQCQPEVDPARIGALGWGLGGGVAVSAAAHDARIKAVVCAIGVANGGRYGRVGMSDAAWAARQEQIAADRRERVLTGRSARLPRTEILGRPDAQRAERHERQNWIDSLVAAVGPERAADPAKLGIPDEITLESMEALYDFAPDAVVDRIAPRPLLIVHARDDHEFPFEHAADMYERAAQPKQLIAVEDAGHLDWIDPAHPSQQVYVPQVVAWMQAQL | not soluble
ASAFSESEETFVRIVAQWAGKEISRRRNQKRANAERERLRQIIDTIPQQVFVKDADGTYTLANKAAAAAHGVAVERLEGATHDEFALSDEQRDFKSDDAAVIENGESVHIEEDGLVEADGSSHTVQTDIVPIEIAS | not soluble
ASGTTLNWTGRMLGNGTLVKEGAGTLALSGFNAHGGTVVNAGTVQISNDYGLGNGALTLNNSRLASTADIYAEAAATVNGNGTFDTANGTTLQWMGDIGGAGALVKTGAGTLLLGGDSLY | not soluble
ASHMQRIAVTAEGPGLDGLVDPRFGRAAGFVVVDAATMAAEYVDNGASQTLSHGAGINAAQVLAKSGAGVLLTGYVGPKAFQALQAAGIKVGQDLEGLTVRQAVQRFLDGQVPMAAGPNK | soluble
ASITGDALVALPEGESVRIADIVPGARPNSDNAIDLKVLDRHGNPVLADRLFHSGEHPVYAVRTVEGLRVTGTANHPLLCLVDVAGVPTLLWKLIDEIKPGDYAVIQRSAFSVDCAGFARGKPEFAPTTYTVGVPGLVRFLEAHHRDPDAKAIADELTDGRFYYAKVASVTDAGVQPVYSLRVDTADHAFITNGFVSHN | soluble
ASLYEKLGGAAAVDLAVEKFYGKVLADERVNRFFVNTDMAKQKQHQKDFMTYAFGGTDRFPGRSMRAAHQDLVENAGLTDVHFDAIAENLVLTLQELNVSQDLIDEVVTIVGSVQHRNDVLNR | soluble
ASWSHPQFEKSGGGGGLVPRGSKRADAGTASALAASQLPQATMPGKSMVAIAGSSYQGQNGLAIGVSRISDNGKVIIRLSGTTNSQGKTGVAAGVGYQW | soluble
ATAVNGAPRDAALWSSHEQMLAQPLKDSDAEVYDIIKKESNRQRVGLELIASENFASRAVLEALGSCLNNKYSEGYPGQRYYGGTEHIDELETLCQKRALQAYGLDPQCWGVNVQPYSGSPANFAVYTALVEPHGRIMGLDLPDGGHLTHGFMTDKKKISATSIFFESMAYKVNPDTGYIDYDRLEENARLFHPKLIIAGTSCYSRNLDYGRLRKIADENGAYLMADMAHISGLVVAGVVPSPFEHCHVVTTTTHKTLRGCRAGMIFYRRGVRSVDPKTGKEILYNLESLINSAVFPGLQGGPHNHAIAGVAVALKQAMTPEFKEYQRQVVANCRALSAALVELGYKIVTGGSDNHLILVDLRSKGTDGGRAEKVLEACSIACNKNTCPGDKSALRPSGLRLGTPALTSRGLLEKDFQKVAHFIHRGIELTVQIQDDTGPRATLKEFKEKLAGDEKHQRAVRALRQEVESFAALFPLPGLPGF | soluble
ATHTAQTQTHLNFTQIKTVDELNQALVEAKGKPVMLDLYADWCVACKEFEKYTFSDPQVQKALADTVLLQANVTANDAQDVALLKHLNVLGLPTILFFDGQGQEHPQARVTGFMDAETFSAHLRDRQPHHHHHH | soluble
ATIKDVAKRANVSTTTVSHVINKTRFVAEETRNAVWAAIKELHYSPSAVARSLKVNHTKSIGLLATSSEAAYFAEIIEAVEKNCFQKGYTLILGNAWNNLEKQRAYLSMMAQKRVDGLLVMCSEYPEPLLAMLEEYRHIPMVVMDAGEAKADFTDAVIDNAFEGGYMAGRYLIERGHREIGVIPGPLERNTGAGRLAGFMKAMEEAMIKVPESWIVQGDFEPESGYRAMQQILSQPHRPTAVFCGGDIMAMGALCAADEMGLRVPQDVSLIGYDNVRNARYFTPALTTIHQPKDSLGETAFNMLLDRIVNKREEPQSIEVHPRLIERRSVADGPFRDYRR | soluble
AVIGMNEAASALTPSRVSSLPDTQRAAWQEYLARSEAQLSRDKASLAAELAPGQPLPPPPAEGKGADTMPLDKPAAWYTSKAARHVADVIVSFQTPAGGWGKNQPRDGALRLPGQHYTGENVAKVKSGSNDLDAARDRDWHYVGTIDNDATVTEIRFLAQVVSQLAPEEAAPYRDAALKGIEYLLASQFPNGGWPQVWPLEGGYHDAITYNDDALVHVAELLSDIAAGRDGFGFVPPAIRTRALEATNAAIHCIVETQVVQDGKRLGWGQQHDALTLRPTSARNFEPAALSSTESARILLFLMEIEAPSDAVKQAIRGGVAWLNTSVIRDRAWVKSDQGYQLVTEQGAKPLWSRFYSLDGNKPVFGDRDKTIHDDVMGISQERRTGYAWYTTSPQKALSAFTKWEKRS | soluble
AVREEIAGALYLGHSEGVVEKEDRDRILGALDLAERTVEEIMLHRSNIVMLDADAEPETILEHCLQSPHTRLPVYRGEPENIIGVVHAKDLFRAMYAQVGGSEGHTARLKDFDISRVANAPYFVPETTTLDDQMRAFLRMRSHFALVVDEYGSLRGLITLEDILEEIVGEIT | not soluble
AVYGIDAMNPSSRDDFTEFGKLLKDKITQYEKSLYYASFLEVLVRDVCISLEIDDLKKITNSLTVLCSEKQKQEKQSKAK | soluble
CSKPETNVVAQDGSTSAAAAQVETQTAESRYLALVDGYFKDYLKLEPIYATFVGVNDYNTQFGGDLTEEYLKARHDLNTRYLAQVKTIDLDELPADLQLSYSLFVYDREMALVDETYPSRFMPISQFYSTVITMVQLGSGESAQPFNTVQDYRNWEQRVNGFIDWIKLAQHRMDEGIASKVVLPRVLVERIIPQLDAMLTTDASQSIFYSPITHFPEGFSAQDKAELTASYQAMISERLVPTLTGLRDYFKQTYLPKSRATDGWSGLPNGKAWYQHLANSHTTTTMPVDEIHQIGLSEVARILSEMDKVREQVGFKGDLKAFFASLSSEPQYFYSDRQGLIDGYMALKDKINLVLPQYFNVMPKADYVVKPVESFREQSAAGASYEAPAVDGSRPGVFYINTYNLKAQPKWGMTTLSLHEAAPGHHFQIAIKQELTGVPEFQRFSGYTAFEEGWALYAEYLGIEMGLFSDPYQYFGKLSDEMLRAMRLVVDTGLHAKGWSREQAIQYMKDNSPMAESDIVAEVERYMAIPGQALSYKVGQLKILALRERAEKALGDKFDLKAFHDQILTSGSLPMAVMEQKIDRWIAANK | not soluble
DAAKSHAPVVRSMEASLSPELKRELSDGIECIGIGGGDLHTRIVWTQYGTLPHRVGDVQCRYRIVLLPQNADAPQGWQTVWQGARPRNKDSKFALIRKIGENI | not soluble
DAIAVWGHRPSAAKPVAIAKAAGKPVIRLEDGFVRSLDLGVNGEPPLSLVVDDCGIYYDASKPSALEKLVQDKAGNAALADQAREAMHTIVTGDLSKYNLAPAFVADESERADIVLVVDQTFNDMSVTYGNAGPHEFAAMLEAAMEENPQAEIWVKVHPDVLEGKKTGYFADLRATQRVRLIAENVSPQSLLRHVSRVYVVTSQYGFEALLAGKPVTCFGQPWYAGWGLTDDRHPQSALLSARRGSATLEELFAAAYLRYCRYIDPLTG | not soluble
DCCSCQEKWVGYRCNCYFISSEQKTWNESRHLCASQKSSLLQLQNTDELDFMSSSQQFYWIGLSYSEEHTAWLWENGSALSQYLFPSFETFNTKNCIAYNPNGNALDESCEDKNRYICKQQLI | soluble
DDAENIEYKVSISGTSVELTCPLDSDENLKWEKNGQELPQKHDKHLVLQDFSEVEDSGYYVCYTPASNKNTYLYLKARVGSADDAKKDAAKKDDAKKDDAKKDGSQTNKAKRALEVLEAEDKVILKCNSSITLLQGTAGQEVSDNKTLNLGKRIEDPRGMYQCGENAKSFTLQVYYRM | soluble
DDIEADHVGSYGIVVYQSPGDIGQYTFEFDGDELFYVDLDKKETIWMLPEFAQLRSFDPQGGLQNIATGKHNLGVLTKRSNSTPATNEAPQATVFPKSPVLLGQPNTLICFVDNIFPPVINITWLRNSKSVADGVYETSFFVNRDYSFHKLSYLTFIPSDDDIYDCKVEHWGLEEPVLKHWEP | soluble
DDSCQIGTSFTGLDMTKYVGTWYELFRTPNSDEEDFTNCEYDKYTLDENGVIQVTSVAYTNSIRGFITSTGTVPSWTEDTFDIAYGDDETWSSTYFMVGTDYQTYSIVAGCLDNDYSRHLYWIASHETSFDDATKAKVNEVLAPYNLSLDDMEPVDQSYCVQY | soluble
